Laboratory results published in US20220017632A1 (HANX BIOPHARMACEUTICS, published 2022).

T1: human fusion protein hOX40-HIS (human, UniProt P43489 29-216, limits assumed)
T1 construct: it looks like the extracellular region; also called hOX40-HIS antigen; human OX40 antigen
T1 sequence: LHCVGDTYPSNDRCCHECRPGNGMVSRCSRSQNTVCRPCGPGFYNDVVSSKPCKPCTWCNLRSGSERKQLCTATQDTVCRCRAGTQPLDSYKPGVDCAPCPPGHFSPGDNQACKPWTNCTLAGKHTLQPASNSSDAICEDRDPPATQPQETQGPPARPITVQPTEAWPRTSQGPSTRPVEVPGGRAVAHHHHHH

T2: hOX40 protein on the cell membrane surface (293T-OX40 stably transfected cells) (human, UniProt P43489 29-277)
T2 construct: whole, on cells; also called hOX40 on the surface of the cell membrane; 293T cells expressing hOX40
T2 sequence (looked up): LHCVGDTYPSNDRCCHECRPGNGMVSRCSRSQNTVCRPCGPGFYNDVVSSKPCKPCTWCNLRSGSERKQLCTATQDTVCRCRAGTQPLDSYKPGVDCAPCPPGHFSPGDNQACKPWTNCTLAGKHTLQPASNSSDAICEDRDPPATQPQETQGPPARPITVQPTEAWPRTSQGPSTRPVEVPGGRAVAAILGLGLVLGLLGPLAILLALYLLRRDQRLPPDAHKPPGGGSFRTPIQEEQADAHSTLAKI

T3: murine OX40 antigen (murine, UniProt P47741 20-211, limits assumed)
T3 sequence (looked up): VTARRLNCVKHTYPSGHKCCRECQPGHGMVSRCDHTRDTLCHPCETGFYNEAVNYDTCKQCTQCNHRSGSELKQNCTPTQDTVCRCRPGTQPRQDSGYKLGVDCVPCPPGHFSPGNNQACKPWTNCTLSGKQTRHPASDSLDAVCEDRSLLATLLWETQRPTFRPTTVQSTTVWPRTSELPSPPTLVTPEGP


Legend:
[1] = target: T1, human fusion protein hOX40-HIS; assay: ELISA, coated hOX40-HIS; antibody 80 ng/ml; well 2
Experimental: (§1) For the hybridoma antibodies prepared in Example 1, the specific binding of different antibodies to hOX40 was detected by the following steps:
(§2) 3) addition of the primary antibody: preparing the four antibodies to a concentration of 2 μg/ml, and diluting 1:5 from the 2 μg/ml as the starting concentration to 7 gradient concentrations (that is, the concentrations of 2μg/ml, 400 ng/ml, 80 ng/ml, 16 ng/ml, 3.2 ng/ml, 0.64 ng/ml, 0.128 ng/ml, respectively). The prepared primary antibodies were added individually, and incubated at 30° C. for 1 hour; PBS was used as the blank control group;

[2] = target: T1, human fusion protein hOX40-HIS; assay: ELISA, coated hOX40-HIS; antibody 400 ng/ml; well 1
Experimental: as §1, §2

[3] = target: T1, human fusion protein hOX40-HIS; assay: ELISA, coated hOX40-HIS; antibody 2000 ng/ml; well 2
Experimental: as §1, §2

[4] = target: T1, human fusion protein hOX40-HIS; assay: ELISA, coated hOX40-HIS; antibody 3.2 ng/ml; well 2
Experimental: as §1, §2

[5] = target: T1, human fusion protein hOX40-HIS; assay: ELISA, coated hOX40-HIS; antibody 0.128 ng/ml; well 2
Experimental: as §1, §2

[6] = target: T1, human fusion protein hOX40-HIS; assay: ELISA, coated hOX40-HIS 0.6 ug/ml
Experimental: as §2
The ELISA test results are shown in Table 1, in which, the EC₅₀ value represents the half-maximal effect concentration, that is, the concentration that can cause 50% of the maximum effect.

[7] = target: T1, human fusion protein hOX40-HIS; assay: ELISA, coated hOX40-HIS; antibody 400 ng/ml; well 2
Experimental: as §1, §2

[8] = target: T1, human fusion protein hOX40-HIS; assay: ELISA, coated hOX40-HIS; antibody 0.64 ng/ml; well 1
Experimental: as §1, §2

[9] = target: T1, human fusion protein hOX40-HIS; assay: ELISA, coated hOX40-HIS; antibody 16 ng/ml; well 1
Experimental: as §1, §2

[10] = target: T1, human fusion protein hOX40-HIS; assay: ELISA, coated hOX40-HIS; antibody 3.2 ng/ml; well 1
Experimental: as §1, §2

[11] = target: T1, human fusion protein hOX40-HIS; assay: ELISA, coated hOX40-HIS; antibody 80 ng/ml; well 1
Experimental: as §1, §2

[12] = target: T1, human fusion protein hOX40-HIS; assay: ELISA, coated hOX40-HIS; antibody 2000 ng/ml; well 1
Experimental: as §1, §2

[13] = target: T1, human fusion protein hOX40-HIS; assay: ELISA, coated hOX40-HIS; antibody 0.64 ng/ml; well 2
Experimental: as §1, §2

[14] = target: T1, human fusion protein hOX40-HIS; assay: ELISA, coated hOX40-HIS; antibody 0.128 ng/ml; well 1
Experimental: as §1, §2

[15] = target: T1, human fusion protein hOX40-HIS; assay: ELISA, coated hOX40-HIS; antibody 16 ng/ml; well 2
Experimental: as §1, §2

[16] = target: T2, hOX40 protein on the cell membrane …; assay: flow cytometry on 293T-OX40 cells
Experimental: In this experiment, 293T-OX40 stably transfected cell lines were used as the experimental cells, and the FACS method was used to detect the binding of 9C12 to the hOX40 protein on the cell membrane surface. The specific procedure is as follows:
293T cells expressing hOX40 were digested, and prepared to a final concentration of 10⁶ cells/ml. 100 μl of cell suspension from each group was added into a 1.5 ml EP tube. Various concentrations of 9C12 antibody (10000 ng/ml, 4000 ng/ml, 2000 ng/ml, 1000 ng/ml, 500 ng/ml, 200 ng/ml, 20 ng/ml, 2 ng/ml) were added, and incubated on ice for 1 hour. After 1 hour, the tube was washed with HBSS once. Each group was added with prepared APC goat anti-human IgG secondary antibody, incubated on ice for 20 minutes in the dark, washed once with HBSS, and finally suspended with 200 μl of HBSS, and the cells were tested.

murine OX40 antigen = target: T3, murine OX40 antigen; assay: ELISA, coated murine OX40 antigen 0.25 ug/ml
Experimental: (§3) Human OX40 antigen, monkey OX40 antigen and murine OX40 antigen were used for coating respectively to detect whether OX40 antibody cross-reacts with OX40 protein of different species, through the following steps:
(§4) 3) addition of the primary antibody: preparing antibody 9C12 to a concentration of 2 μg/ml, and diluting 1:5 from the 2 μg/ml as the starting concentration to […] 7 gradient concentrations (that is, the concentrations of 2 μg/ml, 400 ng/ml, 80 ng/ml, 16 ng/ml, 3.2 ng/ml, 0.64 ng/ml, 0.128 ng/ml, respectively). PBS was used as the blank control group. The prepared primary antibodies were added individually, and incubated at 30° C. for 1 hour;

[17] = target: T1, human fusion protein hOX40-HIS; assay: SPR, ProteOn XPR, hOX40-HIS immobilized on GLM chip, antibody as analyte
Experimental: The ProteOn XPR molecular interaction instrument may be used to detect the kinetics and affinity constants of the interaction between different drugs and a variety of different target proteins. 250 nM hOX40-HIS antigen ([…] hOX40 antigen) was immobilized on the surface of the GLM chip, and after equilibrating in PBST, was allowed to bind to the antibody 9C12 diluted twice in PBST to the concentration of 50, 25, 12.5, 6.25, 3.125, 0 nM, respectively, and then dissociated in PBST.

[18] = target: T1, human fusion protein hOX40-HIS; assay: ELISA, coated human OX40-HIS 0.25 ug/ml
Experimental: as §3, §4

monkey OX40 antigen = target: T4, monkey OX40 antigen (monkey); assay: ELISA, coated monkey OX40-HIS 0.25 ug/ml
T4 construct: also called Monkey OX40-HIS antigen
Experimental: as §3, §4

| absorbance at 450 nm [1] | absorbance at 450 nm [2] | absorbance at 450 nm [3] | absorbance at 450 nm [4] | absorbance at 450 nm [5] | EC50 [6] | absorbance at 450 nm [7] | absorbance at 450 nm [8] | absorbance at 450 nm [9] | absorbance at 450 nm [10] | absorbance at 450 nm [11] | absorbance at 450 nm [12] | absorbance at 450 nm [13] | absorbance at 450 nm [14] | absorbance at 450 nm [15] | Kd [17] | koff [17] | kon [17] | Binder | other results |
| --- | --- | --- | --- | --- | --- | --- | --- | --- | --- | --- | --- | --- | --- | --- | --- | --- | --- | --- | --- |
| 0.287 | 1.11 | 3.08 | 0.066 | 0.052 | 10.8 nM | 1.12 | 0.051 | 0.104 | 0.061 | 0.316 | 2.95 | 0.053 | 0.053 | 0.123 | – | – | – | antibody 1D9 (antibody, V domains shown, Purified mouse hybridoma antibody; also called 1D9 antibody; 1D9 Ab) VH: EVQLQQSGPELVKPGALVKISCKASGYTFTNYDINWVKQRPGQGLEWIGWIYPEDGSTKYNEKFKGKATLTADKSSSTAYMQLSSLTSENSAVYFCARDTRGYFDYWGQGTTLTVSS VL: DIVMTQTTAIMSASLGEKVTMSCRASSSVNYIYWYQQKSDASPKLWIYYTSNLAPGVPARFSGSGSGNSYSLTISSMEGEDAATYYCQQFTSSPWTFGGGTKLEFKR | – |
| 2.51 | 2.59 | 2.68 | 1.51 | 0.138 | 0.017 nM | 2.52 | 0.464 | 2.4 | 1.58 | 2.59 | 2.72 | 0.464 | 0.147 | 2.25 | 0.151 nM | 6.73e-05 s⁻¹ | 445000 M⁻¹ s⁻¹ | antibody 9C12 (antibody, V domains shown, Purified mouse hybridoma antibody; also called 9C12 antibody; 9C12 Ab) VH: QVQLQQSGGGLVKPGGSLKLSCAASGFTFSDYYMYWVRQTPEKRLEWVATISDGGSNTYYPDSVKGRFTISRDNAKNNLYLQMSSLKSEDTATYYCARRGTGTGFGYWGQGTLVTVSA VL: DIVLTQTTASLSVSVGETVTITCRASENIYSTLAWYQQKQGKSPQLLVYAATNLVAGVPSRFSGSGSGTQYSLKINSLQSEDFGSYYCQHFWGIPWTFGGGTKLEIK | EC50 [16]: 2.84 nM; binding result (murine OX40 antigen): no binding (tested: 2000 ng/ml); EC50 [18]: 0.012 nM; EC50 (monkey OX40 antigen): 0.01 nM |
| 0.87 | 1.64 | 1.98 | 0.094 | 0.056 | 0.727 nM | 1.66 | 0.059 | 0.272 | 0.096 | 0.894 | 1.93 | 0.058 | 0.05 | 0.288 | 20.8 nM | 0.000567 s⁻¹ | 27300 M⁻¹ s⁻¹ | antibody 8A7 (antibody, V domains shown, Purified mouse hybridoma antibody; also called 8A7 antibody; 8A7 Ab) VH: QVQLQESGPSHVKPSQTLSLTCSVTGDSITSGYWNWIRKFPGNKLEYLGYISFSGNTYYNPSLKSRISIIRDTSKNQYYLQLNSVTTEDTATYYCARYPYSYSNWDYAMDYWGQGTSVTVSS VL: DIVMTQSPSSLVVSVGEKVTMSCKSSQFLLYSSSQKNYLAWYQQKPGQSPQLLIYWASTRESGVPDRFTGSGSGTDFTLTISSVKAEDLAVYYCHQYYSYPLTFGAGTKLELK | – |
